Positions count from the first letter of the chain named. Names and notes keep the numbering of the source.

Assay [1] concerns the target T1, Salmonella FliC (flagellin) (Salmonella enterica serovar Typhimurium, UniProt P06179 1-495).
T1 construct: FliC (flagellin), major component of the flagellar filament, Salmonella enterica serovar Typhimurium
Briefly: SPR; Biacore T100; AquFlhBC or FliC amine-coupled to a CM5 chip; FliS or FliS A22T flowed at 30 µl/min for 12 min; 10 mM HEPES pH 7.4, 150 mM NaCl, 0.05% (v/v) Surfactant P20; 25°C; steady-state analysis, 1:1 binding model. The settings on record: both partners purified.

The target in assay [2] is T2, Aquifex FlhBC (C-terminal cytoplasmic domain of Aquifex aeolicus FlhB) (Aquifex aeolicus, UniProt O67813 213-350).
T2 construct: FlhB of Aquifex aeolicus, cytoplasmic domain FlhBC; also called AquFlhBC; source: purified as described previously [14]
T2 sequence (looked up): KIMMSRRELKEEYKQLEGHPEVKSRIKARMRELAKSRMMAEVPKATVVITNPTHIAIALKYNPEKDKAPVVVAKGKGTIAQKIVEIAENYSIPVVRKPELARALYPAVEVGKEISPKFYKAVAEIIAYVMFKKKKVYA
The description is as above. The settings on record: both partners purified.

T1 sequence (P06179 whole entry): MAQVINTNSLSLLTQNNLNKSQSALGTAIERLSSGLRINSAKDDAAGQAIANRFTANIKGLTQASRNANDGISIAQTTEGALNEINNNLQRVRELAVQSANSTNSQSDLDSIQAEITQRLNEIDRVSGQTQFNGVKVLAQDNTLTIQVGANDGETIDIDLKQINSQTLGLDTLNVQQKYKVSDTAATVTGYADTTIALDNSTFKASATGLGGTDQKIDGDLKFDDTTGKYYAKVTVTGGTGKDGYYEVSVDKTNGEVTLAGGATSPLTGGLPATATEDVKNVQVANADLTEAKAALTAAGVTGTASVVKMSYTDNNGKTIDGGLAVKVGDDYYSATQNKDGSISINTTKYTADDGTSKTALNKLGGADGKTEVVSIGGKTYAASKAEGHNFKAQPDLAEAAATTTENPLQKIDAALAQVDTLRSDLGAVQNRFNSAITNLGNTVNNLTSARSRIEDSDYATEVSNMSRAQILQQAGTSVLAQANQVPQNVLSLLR

B1: Salmonella FliS (wild type) (natural protein)
chain: MYTASGIKAYAQVSVESAVMSASPHQLIEMLFDGANSALVRARLFLEQGDVVAKGEALSKAINIIDNGLKAGLDQEKGGEIATNLSELYDYMIRRLLQANLRNDAQAIEEVEGLLSNIAEAWKQISPKASFQESR
notes: FliS, flagellin-specific chaperone of Salmonella enterica serovar Typhimurium; also called wild-type FliS
On to B1, for which the dissociation constant (Kd) (commonly a measure of binding affinity in units of concentration) in assay [1] was found to be 0.7 µM; in assay [2], 169 µM.

B2: Salmonella FliS A22T (natural protein)
chain: B1 chain with A22T
notes: FliS of Salmonella enterica serovar Typhimurium with the point mutation A22T; The mutation arose as a spontaneous extragenic suppressor in the laboratory strain CB351; expression and purification of the protein are not described; also called FliS mutant A22T; fliS22264(A22T)
As to B2, the Kd is 11.9 µM in assay [1] and 304 µM in assay [2].

The values above are taken from PMC3708937, “Function of FlhB, a Membrane Protein Implicated in the Bacterial Flagellar Type III Secretion System” (PLoS ONE, 2013).
